Results on 1 substance are retold here after article PMC13410764.

This assay deals with Tr1 protein of Anaplasma phagocytophilum (recombinant, tagless) (Anaplasma phagocytophilum). The assay is described as follows: SEC; gel filtration on a HiPrep Sephadex 75 16/600 column with Buffer B; apparent molecular weights from a standard curve of elution volumes.

For “Tr1 protein of Anaplasma phagocytophilum (recombinant, tagless) (natural protein)”, the stoichiometry N is 4.

As usually defined, the stoichiometry N is the number of molecules, sites or subunits per partner or assembly.
